Source: patent publication US20250368684A1, “NEW EGFRVIII-BINDING PEPTIDES, CONJUGATES AND USES THEREOF” (NANOTHERA BIOSCIENCES, INC., priority 2021, published 2025)
*: point of attachment. FITC = O=C1OC2(c3ccc(O)cc3Oc3cc(O)ccc32)c2ccc(NC(=S)*)cc21; Ahx = NCCCCCC(=O)O

Columns and labels:
hEGFRvIII = target: T1, hEGFRvIII (Homo sapiens, UniProt P00533, DELINS30-297G); assay: Phage display biopanning against hEGFRvIII with NGS enrichment analysis; assay type: binding; conditions: over rounds of biopanning
T1 construct: using purified and active extracellular domain for EGFRvIII protein; purchased Sino Biological
Protocol: Ph.D.-12™ Phage Display Peptide Library Kit was purchased from New England Biolabs Inc. (Beverly, MA, USA). Biopanning procedures were done according to the manufacturer's instruction with certain modifications. Briefly, a 96-well plate was coated with 150 μL hEGFRvIII (Sino Biological) (in the first two rounds at 100 μg/mL, the third round at 10 μg/mL) overnight at 4° C. Wells were washed with PBS, blocked with blocking buffer (3% BSA in PBS), washed six times with cold PBST (PBS+0.1% [v/v] Tween-20), then incubated with […] phage peptide library Ph.D.-12 for 2 hours at RT. […]
The NGS data analysis is an imperative approach to filter out all the non-specific binders and identify the putative binders. In addition, NGS also allows us to perform deeper quantitative analysis, such as calculating the frequency of amino acids distribution in each position of the peptide sequence, consensus motif and target unrelated peptides. […] This is highly useful as we can follow how the read of a peptide evolves or changes with the rounds of biopanning. […] The total number of sequences and the corresponding number of reads for each DNA sequence are recorded in a separate CSV file. […] Due to codon degeneracy, different codons can translate into same amino acids, thus after translation identical sequences exist with different reads. […]

[1] = target: T2, human EGF receptor variant III (EGFRvIII) on CLTH/EGFRvIII cells (human, UniProt P00533 25-1210); assay: flow cytometry, normalized MFI on EGFRvIII cells over normalized MFI on EGFR WT cells
T2 construct: whole, on cells
Protocol: On FITC-Ahx-peptides. Flow cytometry analysis was also performed to quantitatively analyze the binding affinity of the synthetized peptides to the different cell types. […] The next day, cells were treated with FITC-Ahx-peptides using a stock solution in pure DMSO at 5 mM to reach a final concentration of 10 µM (final percentage of DMSO of 0.2%). Plates were incubated for 20 min at RT. Cells were detached from the plates by a PBS fush, transferred to FACS tubes and washed 2 times with 4 mL of PBS. Cells were stained with LIVE/DEAD™ Fixable Near-IR Dead Cell Stain Kit (Thermofisher) as a viability marker. Cells were analyzed by flow cytometry on a MACSQuant Analyser 16 (Miltenyi Biotec) using the MACS Quantify software to acquire and process the data. LIVE/DEAD™ Fixable dye was excited at 640 nm and fluorescence was collected with the 785/62 nm filter. FITC was excited at 488 nm and fluorescence was collected with the 525/50 nm filter. Viable cells were gated, FITC fluorescence intensity was recorded and the mean fluorescence intensity (MFI) was measured. MFI values were then normalized by substracting MFI from blank cells and dividing by the correction factor determined using a spectrofluorimeter.

Molecule: NPIVRSAEDGQL (Negative hit peptide) [negative hit peptide from biopanning]
- enrichment on NGS (hEGFRvIII): didn't show any significant enrichment

B1: FITC-Ahx-YHWYGYTPENVI-CONH2 (peptide)
peptide: {FITC-Ahx}-YHWYGYTPENVI-NH2
SMILES: CC[C@H](C)[C@H](NC(=O)[C@@H](NC(=O)[C@H](CC(N)=O)NC(=O)[C@H](CCC(=O)O)NC(=O)[C@@H]1CCCN1C(=O)[C@@H](NC(=O)[C@H](Cc1ccc(O)cc1)NC(=O)CNC(=O)[C@H](Cc1ccc(O)cc1)NC(=O)[C@H](Cc1c[nH]c2ccccc12)NC(=O)[C@H](Cc1c[nH]cn1)NC(=O)[C@H](Cc1ccc(O)cc1)NC(=O)CCCCCNC(=S)Nc1ccc2c(c1)C(=O)OC21c2ccc(O)cc2Oc2cc(O)ccc21)[C@@H](C)O)C(C)C)C(N)=O
- Normalized MFI ratio vIII/WT [1]: 2.1
